Test results: the supplement of paper PMC11246515
± gives the standard deviation of the averaged measurements.

Assay: total protein half-life in vivo (active degradation + dilution); higher = more stable protein
[1] = E. coli NCM3722 delta-clpP delta-lon delta-hslV, growth: N-lim chemostat, doubling time 6 h
[2] = E. coli NCM3722 delta-hslV, growth: N-lim chemostat, doubling time 6 h
[3] = E. coli NCM3722 delta-smpB, growth: N-lim chemostat, doubling time 6 h
[4] = wild type E. coli NCM3722, growth: C-lim chemostat, doubling time 3 h
[5] = wild type E. coli NCM3722, growth: C-lim chemostat, doubling time 6 h
[6] = wild type E. coli NCM3722, growth: C-lim chemostat, doubling time 12 h
[7] = wild type E. coli NCM3722, growth: N-lim chemostat, doubling time 6 h
[8] = wild type E. coli NCM3722, growth: P-lim chemostat, doubling time 6 h
[9] = wild type E. coli NCM3722, growth: P-lim chemostat, doubling time 12 h
[10] = E. coli NCM3722 delta-lon, growth: N-lim chemostat, doubling time 6 h
[11] = wild type E. coli NCM3722, growth: N-lim chemostat, doubling time 12 h
[12] = E. coli NCM3722 delta-clpP, growth: N-lim chemostat, doubling time 6 h

Sequence | total protein half-life in vivo [1] | total protein half-life in vivo [2] | total protein half-life in vivo [3] | total protein half-life in vivo [4] | total protein half-life in vivo [5] | total protein half-life in vivo [6] | total protein half-life in vivo [7] | total protein half-life in vivo [8] | total protein half-life in vivo [9] | total protein half-life in vivo [10] | total protein half-life in vivo [11] | total protein half-life in vivo [12]
MSKKIVLALGGNALGDDLAGQMKAVKITSQAIVDLIAQGHEVIVTHGNGPQVGMINQAFEAAAKTEAHSPMLPMSVCVALSQGYIGYDLQNALREELLSRGINKPVATLVTQVEVDANDPAFLNPTKPIGSFFTEQEAEQLTKQGYTLKEDAGRGYRRVVASPKPVDIIEKETVKALVDAGQVVITVGGGGIPVIREGNHLRGASAVIDKDWASARLAEMIDADMLIILTAVEKVAINFGKENEQWLDRLSLSDAERFIEEGHFAKGSMLPKVEAAASFARSRAGREALITVLSKAKEGIEGKTGTVICQ | 3.53 h | > 8 h | 2.48 h | 2.84 ± 0.39 h | 3.92 h | 6.22 ± 1.5 h | 2.66 h | 3.03 h | 5.27 ± 1.5 h |  |  | 
MEIFFTILIMTLVVSLSGVVTRVMPFQIPLPLMQIAIGALLAWPTFGLHVEFDPELFLVLFIPPLLFADGWKTPTREFLEHGREIFGLALALVVVTVVGIGFLIYWVVPGIPLIPAFALAAVLSPTDAVALSGIVGEGRIPKKIMGILQGEALMNDASGLVSLKFAVAVAMGTMIFTVGGATVEFMKVAIGGILAGFVVSWLYGRSLRFLSRWGGDEPATQIVLLFLLPFASYLIAEHIGVSGILAAVAAGMTITRSGVMRRAPLAMRLRANSTWAMLEFVFNGMVFLLLGLQLPGILETSLMAAEIDPNVEIWMLFTNIILIYAALMLVRFGWLWTMKKFSNRFLKKKPMEFGSWTTREILIASFAGVRGAITLAGVLSIPLLLPDGNVFPARYELVFLAAGVILFSLFVGVVMLPILLQHIEVADHSQQLKEERIARAATAEVAIVAIQKMEERLAADTEENIDNQLLTEVSSRVIGNLRRRADGRNDVESSVQEENLERRFRLAALRSERAELYHLRATREISNETLQKLLHDLDLLEALLIEENQ | 6.08 ± 0.45 h | 6.29 ± 0.48 h | 5.17 ± 1.3 h |  | 5.6 ± 0.69 h | 11.9 ± 0.93 h | 5.74 ± 0.28 h | 6.31 ± 0.26 h | 11.4 ± 0.66 h | 5.55 ± 0.11 h | 10.9 ± 0.26 h | 
MSDQQQPPVYKIALGIEYDGSKYYGWQRQNEVRSVQEKLEKALSQVANEPITVFCAGRTDAGVHGTGQVVHFETTALRKDAAWTLGVNANLPGDIAVRWVKTVPDDFHARFSATARRYRYIIYNHRLRPAVLSKGVTHFYEPLDAERMHRAAQCLLGENDFTSFRAVQCQSRTPWRNVMHINVTRHGPYVVVDIKANAFVHHMVRNIVGSLMEVGAHNQPESWIAELLAAKDRTLAAATAKAEGLYLVAVDYPDRYDLPKPPMGPLFLAD | 5.48 ± 0.18 h | 3.92 h | 5.64 ± 0.47 h |  |  | 11.8 ± 2.3 h | 5.31 ± 0.53 h | 5.81 ± 0.58 h | 11.6 ± 0.43 h | 5.08 ± 0.086 h | 8.71 ± 1.2 h | 4.85 ± 0.48 h
MRYIVALTGGIGSGKSTVANAFADLGINVIDADIIARQVVEPGAPALHAIADHFGANMIAADGTLQRRALRERIFANPEEKNWLNALLHPLIQQETQHQIQQATSPYVLWVVPLLVENSLYKKANRVLVVDVSPETQLKRTMQRDDVTREHVEQILAAQATREARLAVADDVIDNNGAPDAIASDVARLHAHYLQLASQFVSQEKP [P0A6I9] | 4.61 ± 0.82 h | 4.04 ± 0.14 h | 4.78 ± 0.96 h | 3.06 ± 0.28 h | 4.83 ± 0.92 h | 9.87 ± 0.29 h | 4.18 ± 0.04 h | 5.34 ± 0.12 h | 11.1 ± 0.22 h | 4.32 ± 0.1 h | 6.95 ± 0.2 h | 4.08 ± 0.2 h
MTESTSRRPAYARLLDRAVRILAVRDHSEQELRRKLAAPIMGKNGPEEIDATAEDYERVIAWCHEHGYLDDSRFVARFIASRSRKGYGPARIRQELNQKGISREATEKAMRECDIDWCALARDQATRKYGEPLPTVFSEKVKIQRFLLYRGYLMEDIQEIWRNFAD | 5.54 ± 0.24 h |  |  |  | 4.03 h |  |  | 7.34 h | 8.52 h |  | 5.32 h | 3.94 h
MIEWIIRRSVANRFLVLMGALFLSIWGTWTIINTPVDALPDLSDVQVIIKTSYPGQAPQIVENQVTYPLTTTMLSVPGAKTVRGFSQFGDSYVYVIFEDGTDPYWARSRVLEYLNQVQGKLPAGVSAELGPDATGVGWIYEYALVDRSGKHDLADLRSLQDWFLKYELKTIPDVAEVASVGGVVKEYQVVIDPQRLAQYGISLAEVKSALDASNQEAGGSSIELAEAEYMVRASGYLQTLDDFNHIVLKASENGVPVYLRDVAKVQIGPEMRRGIAELNGEGEVAGGVVILRSGKNAREVIAAVKDKLETLKSSLPEGVEIVTTYDRSQLIDRAIDNLSGKLLEEFIVVAVVCALFLWHVRSALVAIISLPLGLCIAFIVMHFQGLNANIMSLGGIAIAVGAMVDAAIVMIENAHKRLEEWQHQHPDATLDNKTRWQVITDASVEVGPALFISLLIITLSFIPIFTLEGQEGRLFGPLAFTKTYAMAGAALLAIVVIPILMGYWIRGKIPPESSNPLNRFLIRVYHPLLLKVLHWPKTTLLVAALSVLTVLWPLNKVGGEFLPQINEGDLLYMPSTLPGISAAEAASMLQKTDKLIMSVPEVARVFGKTGKAETATDSAPLEMVETTIQLKPQEQWRPGMTMDKIIEELDNTVRLPGLANLWVPPIRNRIDMLSTGIKSPIGIKVSGTVLADIDAMAEQIEEVARTVPGVASALAERLEGGRYINVEINREKAARYGMTVADVQLFVTSAVGGAMVGETVEGIARYPINLRYPQSWRDSPQALRQLPILTPMKQQITLADVADIKVSTGPSMLKTENARPTSWIYIDARDRDMVSVVHDLQKAIAEKVQLKPGTSVAFSGQFELLERANHKLKLMVPMTLMIIFVLLYLAFRRVGEALLIISSVPFALVGGIWLLWWMGFHLSVATGTGFIALAGVAAEFGVVMLMYLRHAIEAVPSLNNPQTFSEQKLDEALYHGAVLRVRPKAMTVAVIIAGLLPILWGTGAGSEVMSRIAAPMIGGMITAPLLSLFIIPAAYKLMWLHRHRVRK |  |  | 6.09 h |  | 7.07 h | > 16 h | 5.97 ± 0.71 h | 6.31 ± 0.89 h | 12.7 ± 0.39 h | > 8 h | 12.6 ± 3.8 h | 
MKNIIRTPETHPLTWRLRDDKQPVWLDEYRSKNGYEGARKALTGLSPDEIVNQVKDAGLKGRGGAGFSTGLKWSLMPKDESMNIRYLLCNADEMEPGTYKDRLLMEQLPHLLVEGMLISAFALKAYRGYIFLRGEYIEAAVNLRRAIAEATEAGLLGKNIMGTGFDFELFVHTGAGRYICGEETALINSLEGRRANPRSKPPFPATSGAWGKPTCVNNVETLCNVPAILANGVEWYQNISKSKDAGTKLMGFSGRVKNPGLWELPFGTTAREILEDYAGGMRDGLKFKAWQPGGAGTDFLTEAHLDLPMEFESIGKAGSRLGTALAMAVDHEINMVSLVRNLEEFFARESCGWCTPCRDGLPWSVKILRALERGEGQPGDIETLEQLCRFLGPGKTFCAHAPGAVEPLQSAIKYFREEFEAGIKQPFSNTHLINGIQPNLLKERW | 5.67 ± 0.18 h | 6.1 ± 0.97 h | 5.48 ± 0.17 h | 2.73 ± 0.23 h | 5.63 ± 0.092 h | 9.99 ± 0.41 h | 5.44 ± 0.24 h | 5.251 ± 0.0079 h | 10.4 ± 0.9 h | 5.74 ± 0.13 h | 9.884 ± 0.082 h | 5.27 ± 0.43 h
